Experimental findings from publication PMC4398458, “Reversible Linkage of Two Distinct Small Molecule Inhibitors of Myc Generates a Dimeric Inhibitor with Improved Potency That Is Active in Myc Over-Expressing Cancer Cell Lines” (PLoS ONE, 2015) are described below.

The target in this series is c-Myc bHLH-LZ;Max (human;human, UniProt P01106-1;P61244 352-439;1-160, |). The experiment in a line: EMSA; Myc:Max heterodimer, no inhibitor; EMSA: 100 mM KCl, 1 mM DTT, 1 mM EDTA, 50 mM Tris pH 7.4, 5 mM MgCl2, 0.002% NP40, 2% DMSO, room temperature; 200 ng Myc, 350 ng Max, 100 nM DNA, 10 ul; gel run in TBE at 4 C. To be noted: protein: recombinant;commercial; tags: N-terminal 6xHis with TEV cleavage site; C-terminal GGCD extension;His and GST; copies: 1;1; label: none (SYBR Green stain); (only one strand given). (In EMSA bound probe runs differently from free probe, usually more slowly.)
Sequence of c-Myc bHLH-LZ;Max (P01106 367-454, chain 1 of 2): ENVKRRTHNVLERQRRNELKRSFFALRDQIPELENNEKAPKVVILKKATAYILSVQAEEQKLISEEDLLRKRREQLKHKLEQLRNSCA
Sequence of c-Myc bHLH-LZ;Max (P61244 whole entry, chain 2 of 2): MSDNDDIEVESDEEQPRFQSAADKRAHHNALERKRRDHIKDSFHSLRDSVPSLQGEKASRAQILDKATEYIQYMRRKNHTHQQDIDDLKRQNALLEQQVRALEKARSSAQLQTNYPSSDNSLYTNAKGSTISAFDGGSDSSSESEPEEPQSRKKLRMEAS

B1: E-box oligonucleotide (dsDNA)
DNA 1: GATCAGTTGACCACGTGGTCTGGG
DNA 2: CCCAGACCACGTGGTCAACTGATC
In the case of B1, the binding result is reported as “binds”.
